PMC8046669, “Structural basis of nucleosome transcription mediated by Chd1 and FACT” (Nature Structural & Molecular Biology, 2021)

Molecular target: T1, S. cerevisiae FACT (heterodimer of Spt16 and Pob3) (S. cerevisiae, UniProt P32558 1-1035; Q04636 1-552)
T1 construct: Spt16, subunit of FACT, S. cerevisiae; Pob3, subunit of FACT, S. cerevisiae
Test: SEC; size exclusion chromatography runs of Chd1 constructs with FACT, fractions analysed by SDS-PAGE
Conditions: both partners purified

T1 sequence (P32558 whole entry, chain 1 of 2): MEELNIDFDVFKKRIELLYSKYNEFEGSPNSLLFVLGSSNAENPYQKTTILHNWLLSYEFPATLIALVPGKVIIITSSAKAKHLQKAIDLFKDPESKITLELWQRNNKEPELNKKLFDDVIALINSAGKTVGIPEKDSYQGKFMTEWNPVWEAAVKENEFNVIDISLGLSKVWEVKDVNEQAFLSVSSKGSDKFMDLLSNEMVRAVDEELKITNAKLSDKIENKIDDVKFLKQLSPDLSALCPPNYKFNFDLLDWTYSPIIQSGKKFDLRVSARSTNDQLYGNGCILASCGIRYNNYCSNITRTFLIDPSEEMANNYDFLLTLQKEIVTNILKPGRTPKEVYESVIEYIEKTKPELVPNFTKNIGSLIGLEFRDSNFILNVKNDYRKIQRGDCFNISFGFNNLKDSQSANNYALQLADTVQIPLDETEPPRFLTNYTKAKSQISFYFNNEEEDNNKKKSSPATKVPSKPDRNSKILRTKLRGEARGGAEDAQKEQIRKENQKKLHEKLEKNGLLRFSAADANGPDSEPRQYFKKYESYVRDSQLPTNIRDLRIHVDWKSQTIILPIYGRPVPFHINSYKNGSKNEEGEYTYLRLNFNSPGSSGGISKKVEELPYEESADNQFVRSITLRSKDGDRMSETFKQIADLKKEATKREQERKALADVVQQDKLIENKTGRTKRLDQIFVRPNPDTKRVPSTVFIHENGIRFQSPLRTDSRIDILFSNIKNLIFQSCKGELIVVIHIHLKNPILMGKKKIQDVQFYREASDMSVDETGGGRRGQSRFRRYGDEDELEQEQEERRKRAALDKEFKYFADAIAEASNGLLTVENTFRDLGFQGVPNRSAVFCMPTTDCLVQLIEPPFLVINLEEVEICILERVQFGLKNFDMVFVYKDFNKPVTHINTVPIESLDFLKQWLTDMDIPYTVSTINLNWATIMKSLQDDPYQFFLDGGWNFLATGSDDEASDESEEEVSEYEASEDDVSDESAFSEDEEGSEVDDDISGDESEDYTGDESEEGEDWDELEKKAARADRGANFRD
T1 sequence (Q04636 whole entry, chain 2 of 2): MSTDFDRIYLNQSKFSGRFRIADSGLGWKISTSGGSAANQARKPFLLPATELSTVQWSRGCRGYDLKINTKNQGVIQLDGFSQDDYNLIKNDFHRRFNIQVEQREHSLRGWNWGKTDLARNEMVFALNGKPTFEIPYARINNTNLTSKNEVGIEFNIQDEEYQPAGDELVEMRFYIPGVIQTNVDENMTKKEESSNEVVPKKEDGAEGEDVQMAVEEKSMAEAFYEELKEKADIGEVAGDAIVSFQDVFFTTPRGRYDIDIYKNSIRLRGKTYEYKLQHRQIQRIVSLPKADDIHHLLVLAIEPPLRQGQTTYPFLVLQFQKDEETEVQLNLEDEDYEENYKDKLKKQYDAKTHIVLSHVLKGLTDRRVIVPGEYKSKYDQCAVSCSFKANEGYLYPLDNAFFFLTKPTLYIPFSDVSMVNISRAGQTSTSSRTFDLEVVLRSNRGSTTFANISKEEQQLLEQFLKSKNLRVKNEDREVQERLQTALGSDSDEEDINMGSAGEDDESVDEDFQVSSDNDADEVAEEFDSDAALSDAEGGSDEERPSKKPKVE

binding result: binds
B1: S. cerevisiae Chd1 (enzyme)
chain: not shown
notes: Chd1, S. cerevisiae, chromatin remodeler; 1468 residues by the printed limits of the truncations; also called full-length Chd1
